Assay: ICP-MS quantification of Au and Pt in mice brains after IV cisplatin+insulin-GNPs
Type: in vivo, Male BALB/c mice
Settings: 8 hours post-administration
Experimental: Male BALB/c mice aged 6-7 weeks were administered intravenously through the tail vein with 200 μl of cisplatin+insulin-GNPs (approximately 0.1 mg of cisplatin according to ICP-MS measurement of Pt concentration) (n=3), or with equivalent dose of free Cisplatin (100 μl, 1 mg/ml) (n=3). Mice were sacrificed 8 hours post-administration. The mice underwent perfusion using 20 ml saline to remove all the particles residing within the blood vessels.
After sacrifice and perfusion, mice brains were extracted and weighted followed by ICP-MS analysis to quantify the amounts of Au and Pt within the brain.

With “cisplatin+insulin-GNPs: 20 nm GNPs with mPEG-SH 5 kDa, PEG 1 kDa conjugated to cisplatin, PEG 5 kDa conjugated to insulin (60:20:20)” the “Au and Pt within the brain (ICP-MS)” value (IV 200 μl, after perfusion) was “both gold and platin were found within the brains” and the “Amount of Pt within the brain compared to equivalent dose of free cisplatin” value (IV) was “significantly higher”.

From patent US12569569B2, “Nano-delivery system and therapeutic and diagnostic use thereof” (NANOCARRY THERAPEUTICS LTD., priority 2020, dated 2026)
